This is an account of results in patent publication US20210388087A1 (Chugai, published 2021).

Numbering of substitutions follows the chain as printed. Numbers in names are those of the source.

B1: dBBDu183H K64D/dBBDu072L (antibody, name in Kabat numbering, V domains shown)
VH: QVQLVESGGGLVQPGRSLRLSCAASGFTFSNAWMHWVRQAPGKGLEWVAQIKDKGNAYAAYYAPSVDGRFTISRDDSKNSIYLQMNSLKTEDTAVYYCHYVHYASASTVLPAFGVDAWGQGTTVTVSS
VL: DIVMTQSPLSLPVTPGEPASISCQASQELVHMNRNTYLHWYQQKPGQAPRLLIYKVSNRFPGVPDRFSGSGSGTDFTLKISRVEAEDVGVYYCAQGTSVPFTFGQGTKLEIK
B2: dBBDu183H K64W/dBBDu072L (antibody, name in Kabat numbering, V domains shown)
VH: B1 VH with D67W
VL: B1 VL
B3: dBBDu183H K64H/dBBDu072L (antibody, name in Kabat numbering, V domains shown)
VH: B1 VH with D67H
VL: B1 VL
B4: dBBDu183H L100dN/dBBDu072L (antibody, name in Kabat numbering, V domains shown)
VH: B1 VH with D67K, L110N
VL: B1 VL
B5: dBBDu183H L100dF/dBBDu072L (antibody, name in Kabat numbering, V domains shown)
VH: B1 VH with D67K, L110F
VL: B1 VL
B6: dBBDu183H L100dR/dBBDu072L (antibody, name in Kabat numbering, V domains shown)
VH: B1 VH with D67K, L110R
VL: B1 VL
B7: dBBDu183H L100dQ/dBBDu072L (antibody, name in Kabat numbering, V domains shown)
VH: B1 VH with D67K, L110Q
VL: B1 VL
B8: dBBDu183H P61D/dBBDu072L (antibody, name in Kabat numbering, V domains shown)
VH: B1 VH with P64D, D67K
VL: B1 VL
B9: dBBDu183H P61T/dBBDu072L (antibody, name in Kabat numbering, V domains shown)
VH: B1 VH with P64T, D67K
VL: B1 VL
B10: dBBDu183H P100eD/dBBDu072L (antibody, name in Kabat numbering, V domains shown)
VH: B1 VH with D67K, P111D
VL: B1 VL
B11: dBBDu183H P61S/dBBDu072L (antibody, name in Kabat numbering, V domains shown)
VH: B1 VH with P64S, D67K
VL: B1 VL
B12: dBBDu183H L100dS/dBBDu072L (antibody, name in Kabat numbering, V domains shown)
VH: B1 VH with D67K, L110S
VL: B1 VL
B13: dBBDu183H K64V/dBBDu072L (antibody, name in Kabat numbering, V domains shown)
VH: B1 VH with D67V
VL: B1 VL
B14: dBBDu183H P61Q/dBBDu072L (antibody, name in Kabat numbering, V domains shown)
VH: B1 VH with P64Q, D67K
VL: B1 VL
B15: dBBDu183H P61K/dBBDu072L (antibody, name in Kabat numbering, V domains shown)
VH: B1 VH with P64K, D67K
VL: B1 VL
B16: dBBDu183H P61E/dBBDu072L (antibody, name in Kabat numbering, V domains shown)
VH: B1 VH with P64E, D67K
VL: B1 VL
B17: dBBDu183H K64R/dBBDu072L (antibody, name in Kabat numbering, V domains shown)
VH: B1 VH with D67R
VL: B1 VL
B18: dBBDu183H P100eE/dBBDu072L (antibody, name in Kabat numbering, V domains shown)
VH: B1 VH with D67K, P111E
VL: B1 VL
B19: dBBDu183H L100dE/dBBDu072L (antibody, name in Kabat numbering, V domains shown)
VH: B1 VH with D67K, L110E
VL: B1 VL
B20: dBBDu183H K64S/dBBDu072L (antibody, name in Kabat numbering, V domains shown)
VH: B1 VH with D67S
VL: B1 VL
B21: dBBDu183H L100dT/dBBDu072L (antibody, name in Kabat numbering, V domains shown)
VH: B1 VH with D67K, L110T
VL: B1 VL
B22: dBBDu183H K64Y/dBBDu072L (antibody, name in Kabat numbering, V domains shown)
VH: B1 VH with D67Y
VL: B1 VL
B23: dBBDu183H P61F/dBBDu072L (antibody, name in Kabat numbering, V domains shown)
VH: B1 VH with P64F, D67K
VL: B1 VL
B24: dBBDu183H L100dV/dBBDu072L (antibody, name in Kabat numbering, V domains shown)
VH: B1 VH with D67K, L110V
VL: B1 VL
B25: dBBDu183H K64N/dBBDu072L (antibody, name in Kabat numbering, V domains shown)
VH: B1 VH with D67N
VL: B1 VL
B26: dBBDu183H L100dK/dBBDu072L (antibody, name in Kabat numbering, V domains shown)
VH: B1 VH with D67K, L110K
VL: B1 VL
B27: dBBDu183H L100dH/dBBDu072L (antibody, name in Kabat numbering, V domains shown)
VH: B1 VH with D67K, L110H
VL: B1 VL
B28: dBBDu183H P61H/dBBDu072L (antibody, name in Kabat numbering, V domains shown)
VH: B1 VH with P64H, D67K
VL: B1 VL
B29: dBBDu183H K64G/dBBDu072L (antibody, name in Kabat numbering, V domains shown)
VH: B1 VH with D67G
VL: B1 VL
B30: dBBDu183H L100dG/dBBDu072L (antibody, name in Kabat numbering, V domains shown)
VH: B1 VH with D67K, L110G
VL: B1 VL
B31: dBBDu183H L100dW/dBBDu072L (antibody, name in Kabat numbering, V domains shown)
VH: B1 VH with D67K, L110W
VL: B1 VL
B32: dBBDu183H P61R/dBBDu072L (antibody, name in Kabat numbering, V domains shown)
VH: B1 VH with P64R, D67K
VL: B1 VL
B33: dBBDu183H L100dD/dBBDu072L (antibody, name in Kabat numbering, V domains shown)
VH: B1 VH with D67K, L110D
VL: B1 VL
B34: dBBDu183H K64E/dBBDu072L (antibody, name in Kabat numbering, V domains shown)
VH: B1 VH with D67E
VL: B1 VL
B35: dBBDu183H K64T/dBBDu072L (antibody, name in Kabat numbering, V domains shown)
VH: B1 VH with D67T
VL: B1 VL
B36: dBBDu183H P61Y/dBBDu072L (antibody, name in Kabat numbering, V domains shown)
VH: B1 VH with P64Y, D67K
VL: B1 VL
B37: dBBDu183H L100dY/dBBDu072L (antibody, name in Kabat numbering, V domains shown)
VH: B1 VH with D67K, L110Y
VL: B1 VL
B38: dBBDu183H K64Q/dBBDu072L (antibody, name in Kabat numbering, V domains shown)
VH: B1 VH with D67Q
VL: B1 VL
B39: dBBDu183H P61N/dBBDu072L (antibody, name in Kabat numbering, V domains shown)
VH: B1 VH with P64N, D67K
VL: B1 VL
B40: dBBDu183H P61G/dBBDu072L (antibody, name in Kabat numbering, V domains shown)
VH: B1 VH with P64G, D67K
VL: B1 VL
B41: dBBDu183H K64F/dBBDu072L (antibody, name in Kabat numbering, V domains shown)
VH: B1 VH with D67F
VL: B1 VL
B42: dBBDu183H P61W/dBBDu072L (antibody, name in Kabat numbering, V domains shown)
VH: B1 VH with P64W, D67K
VL: B1 VL

The target in the assay is T1, Human CD3eg linker (human).
T1 construct: single-chain construct; also called recombinant human CD3
T1 chain: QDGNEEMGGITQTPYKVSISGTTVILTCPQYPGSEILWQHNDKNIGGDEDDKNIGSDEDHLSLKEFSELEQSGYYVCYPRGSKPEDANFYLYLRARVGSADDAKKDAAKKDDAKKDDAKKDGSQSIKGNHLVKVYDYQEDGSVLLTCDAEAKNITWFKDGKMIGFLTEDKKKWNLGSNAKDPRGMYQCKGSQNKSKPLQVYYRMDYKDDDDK
The assay is described as follows: SPR, vs unmutated H183/L072. (In general: SPR reads the build-up and loss of mass on a sensor chip optically.)
Take B1: the “fold change of affinity” value is 1 fold. Turning to B2, the “fold change of affinity” value was 1 fold. Consider B3, for which the “fold change of affinity” value was determined as 1 fold. With B4, the “fold change of affinity” value turned out to be 1.2 fold. With B5, the “fold change of affinity” value is 1.3 fold. For B6, the “fold change of affinity” value is 1.8 fold.

For B7, the “fold change of affinity” value stood at 1.1 fold.

With B8, the “fold change of affinity” value came to 1.9 fold.

Consider B9, for which the “fold change of affinity” value was found to be 1 fold.

As to B10, the “fold change of affinity” value came to 0.7 fold. Turning to B11, the “fold change of affinity” value worked out at 1.3 fold. Take B12: the “fold change of affinity” value came to 1.2 fold. In the case of B13, the “fold change of affinity” value was determined as 1.1 fold. For the molecule B14, the “fold change of affinity” value was 1.8 fold.

For the molecule B15, the “fold change of affinity” value worked out at 1.7 fold. B16: the “fold change of affinity” value is 1.8 fold. With B17, the “fold change of affinity” value worked out at 0.9 fold.

B18: the “fold change of affinity” value came to 1 fold.

On to B19, for which the “fold change of affinity” value amounted to 0.7 fold. For the molecule B20, the “fold change of affinity” value was 1 fold. As to B21, the “fold change of affinity” value turned out to be 1.3 fold. For the molecule B22, the “fold change of affinity” value stood at 1 fold. To B23 belongs 1.8 fold; to B24, 1 fold; to B25, 1 fold. As to B26, the “fold change of affinity” value was 1.8 fold. To B27 belongs 1.3 fold; to B28, 1.8 fold. For B29, the “fold change of affinity” value is 1 fold. To B30 belongs 2 fold. To B31 belongs 1.7 fold; to B32, 1.6 fold; to B33, 1 fold. On to B34, for which the “fold change of affinity” value was found to be 1 fold. For the molecule B35, the “fold change of affinity” value was determined as 1.1 fold. With B36, the “fold change of affinity” value came out at 1.9 fold.

Take B37: the “fold change of affinity” value turned out to be 1.4 fold. For the molecule B38, the “fold change of affinity” value is 1 fold.

On to B39, for which the “fold change of affinity” value is 1.5 fold. For B40, the “fold change of affinity” value turned out to be 1.5 fold. For B41, the “fold change of affinity” value is 1.3 fold. Consider B42, for which the “fold change of affinity” value came to 1.8 fold.
